Earlier results as cited in paper PMC3800467.

Molecular target: RRGHYY peptide

With TEM1 β-lactamase (from UniProt P62593) as the substance, how does the Ki read?
Its Ki is 140 µM.
